Blank lines part the entries; values can stand above or below the binder they belong to.
What was measured:
MED27 = target: T1, MED27 (mouse (Mus musculus; endogenous in CH12), UniProt Q9DB40 1-311); assay: cryo-EM structure; endogenous mouse Mediator immunopurified from CH12 nuclear extract through 3×FLAG-MED19 or 3×FLAG-MED25; eluted in 50 mM HEPES pH 7.9, 100 mM KCl, 5% glycerol, 1 mM EDTA, 0.005% NP-40; map at 4.0 Å overall, focused refinement of the MED1 and knob/hook ends (6-10 Å); settings: both partners purified
T1 construct: MED27, Mus musculus, endogenous upper Tail subunit of Mediator; source: endogenous, CH12 mouse B lymphoma nuclear extract; immunopurified as part of Mediator (FLAG M2 agarose, FLAG peptide elution)
T1 sequence (looked up): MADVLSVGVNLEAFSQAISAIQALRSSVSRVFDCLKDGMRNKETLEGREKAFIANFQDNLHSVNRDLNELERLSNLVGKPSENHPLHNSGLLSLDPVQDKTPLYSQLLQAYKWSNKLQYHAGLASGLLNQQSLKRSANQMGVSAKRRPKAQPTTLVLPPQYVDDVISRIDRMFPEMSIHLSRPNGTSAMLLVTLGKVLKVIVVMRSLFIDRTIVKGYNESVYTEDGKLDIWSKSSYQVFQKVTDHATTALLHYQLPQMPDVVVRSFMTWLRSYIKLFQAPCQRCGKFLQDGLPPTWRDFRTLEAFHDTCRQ

MED17 = target: T2, MED17 (mouse (Mus musculus; endogenous in CH12), UniProt Q8VCD5 1-649); assay: as above; settings: both partners purified
T2 construct: MED17, Mus musculus, endogenous Head module scaffold subunit of Mediator; source: endogenous, CH12 mouse B lymphoma nuclear extract; immunopurified as part of Mediator (FLAG M2 agarose, FLAG peptide elution)
T2 sequence (looked up): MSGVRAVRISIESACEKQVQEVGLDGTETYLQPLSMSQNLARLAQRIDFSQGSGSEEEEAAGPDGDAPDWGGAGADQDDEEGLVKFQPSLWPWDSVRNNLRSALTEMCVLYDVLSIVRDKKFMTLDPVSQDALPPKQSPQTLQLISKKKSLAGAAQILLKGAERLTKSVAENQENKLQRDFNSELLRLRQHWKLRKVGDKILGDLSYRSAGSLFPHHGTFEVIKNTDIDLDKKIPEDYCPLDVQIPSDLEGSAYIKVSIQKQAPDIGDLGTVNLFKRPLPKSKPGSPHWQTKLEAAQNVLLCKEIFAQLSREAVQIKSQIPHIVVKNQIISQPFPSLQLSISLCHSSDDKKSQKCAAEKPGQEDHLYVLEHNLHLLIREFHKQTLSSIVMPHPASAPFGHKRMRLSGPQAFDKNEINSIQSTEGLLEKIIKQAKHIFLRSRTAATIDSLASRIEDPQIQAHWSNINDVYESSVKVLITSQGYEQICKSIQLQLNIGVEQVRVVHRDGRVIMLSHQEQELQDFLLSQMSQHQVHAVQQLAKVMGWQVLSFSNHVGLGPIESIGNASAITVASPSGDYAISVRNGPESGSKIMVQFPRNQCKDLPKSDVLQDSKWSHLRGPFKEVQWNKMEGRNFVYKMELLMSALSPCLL

binding result (MED27): binds
binding result (MED17): binds
B1: MED20 (natural protein, mouse (Mus musculus; endogenous in CH12), UniProt Q9R0X0 1-212, looked up)
chain: MGVTCVSQMPVAEGKSLQQTVELLTKKLEMLGAEKQGTFCVDCETYHTAASTLGSQGQAGKLMYVMHNSEYPLSCFALFENGPCLIADTNFDVLMVKLKGFFQSAKASKIETRGTRYQYCDFLVKVGTVTMGPSARGISVEVEYGPCVVASDCWSLLLEFLQSFLGSHAPGAPTVFGNRHDAVYGPADTMIQYMELFNKIRKQQQVPVAGIR
notes: MED20, Mus musculus, endogenous Head module subunit of Mediator; source: endogenous, CH12 mouse B lymphoma nuclear extract; immunopurified as part of Mediator (FLAG M2 agarose, FLAG peptide elution)

binding result (MED17): binds
B2: MED22 (natural protein, mouse (Mus musculus; endogenous in CH12), UniProt Q62276 1-200, looked up)
chain: MAQQRALPQSKETLLQSYNKRLKDDIKSIMDNFTEIIKTAKIEDETQVSRATQGEQDNYEMHVRAANIVRAGESLMKLVSDLKQFLILNDFPSVNEAIDQRNQQLRALQEECDRKLITLRDEVSIDLYELEEEYYSSSSSLCEANDLPLCEAYWRLDLDADSADGLSAPLLASPETGAGPLQSAAPVHSHGGGPGPTEHT
notes: MED22, Mus musculus, endogenous Head module subunit of Mediator; source: endogenous, CH12 mouse B lymphoma nuclear extract; immunopurified as part of Mediator (FLAG M2 agarose, FLAG peptide elution)

— publication PMC7921410, “Structure of mammalian Mediator complex reveals Tail module architecture and interaction with a conserved core” (Nature Communications, 2021)
